Patent US20240295565A1 (Genentech, published 2024)

Biological target: human UNC80 (uncoordinated 80; protein unc-80 homolog) (human) (UniProt Q8N2C7)
Assay: cryo-EM structure, crossover interface

Sequence of human UNC80 (uncoordinated 80; protein unc-80 homolog) (human) (Q8N2C7 whole entry): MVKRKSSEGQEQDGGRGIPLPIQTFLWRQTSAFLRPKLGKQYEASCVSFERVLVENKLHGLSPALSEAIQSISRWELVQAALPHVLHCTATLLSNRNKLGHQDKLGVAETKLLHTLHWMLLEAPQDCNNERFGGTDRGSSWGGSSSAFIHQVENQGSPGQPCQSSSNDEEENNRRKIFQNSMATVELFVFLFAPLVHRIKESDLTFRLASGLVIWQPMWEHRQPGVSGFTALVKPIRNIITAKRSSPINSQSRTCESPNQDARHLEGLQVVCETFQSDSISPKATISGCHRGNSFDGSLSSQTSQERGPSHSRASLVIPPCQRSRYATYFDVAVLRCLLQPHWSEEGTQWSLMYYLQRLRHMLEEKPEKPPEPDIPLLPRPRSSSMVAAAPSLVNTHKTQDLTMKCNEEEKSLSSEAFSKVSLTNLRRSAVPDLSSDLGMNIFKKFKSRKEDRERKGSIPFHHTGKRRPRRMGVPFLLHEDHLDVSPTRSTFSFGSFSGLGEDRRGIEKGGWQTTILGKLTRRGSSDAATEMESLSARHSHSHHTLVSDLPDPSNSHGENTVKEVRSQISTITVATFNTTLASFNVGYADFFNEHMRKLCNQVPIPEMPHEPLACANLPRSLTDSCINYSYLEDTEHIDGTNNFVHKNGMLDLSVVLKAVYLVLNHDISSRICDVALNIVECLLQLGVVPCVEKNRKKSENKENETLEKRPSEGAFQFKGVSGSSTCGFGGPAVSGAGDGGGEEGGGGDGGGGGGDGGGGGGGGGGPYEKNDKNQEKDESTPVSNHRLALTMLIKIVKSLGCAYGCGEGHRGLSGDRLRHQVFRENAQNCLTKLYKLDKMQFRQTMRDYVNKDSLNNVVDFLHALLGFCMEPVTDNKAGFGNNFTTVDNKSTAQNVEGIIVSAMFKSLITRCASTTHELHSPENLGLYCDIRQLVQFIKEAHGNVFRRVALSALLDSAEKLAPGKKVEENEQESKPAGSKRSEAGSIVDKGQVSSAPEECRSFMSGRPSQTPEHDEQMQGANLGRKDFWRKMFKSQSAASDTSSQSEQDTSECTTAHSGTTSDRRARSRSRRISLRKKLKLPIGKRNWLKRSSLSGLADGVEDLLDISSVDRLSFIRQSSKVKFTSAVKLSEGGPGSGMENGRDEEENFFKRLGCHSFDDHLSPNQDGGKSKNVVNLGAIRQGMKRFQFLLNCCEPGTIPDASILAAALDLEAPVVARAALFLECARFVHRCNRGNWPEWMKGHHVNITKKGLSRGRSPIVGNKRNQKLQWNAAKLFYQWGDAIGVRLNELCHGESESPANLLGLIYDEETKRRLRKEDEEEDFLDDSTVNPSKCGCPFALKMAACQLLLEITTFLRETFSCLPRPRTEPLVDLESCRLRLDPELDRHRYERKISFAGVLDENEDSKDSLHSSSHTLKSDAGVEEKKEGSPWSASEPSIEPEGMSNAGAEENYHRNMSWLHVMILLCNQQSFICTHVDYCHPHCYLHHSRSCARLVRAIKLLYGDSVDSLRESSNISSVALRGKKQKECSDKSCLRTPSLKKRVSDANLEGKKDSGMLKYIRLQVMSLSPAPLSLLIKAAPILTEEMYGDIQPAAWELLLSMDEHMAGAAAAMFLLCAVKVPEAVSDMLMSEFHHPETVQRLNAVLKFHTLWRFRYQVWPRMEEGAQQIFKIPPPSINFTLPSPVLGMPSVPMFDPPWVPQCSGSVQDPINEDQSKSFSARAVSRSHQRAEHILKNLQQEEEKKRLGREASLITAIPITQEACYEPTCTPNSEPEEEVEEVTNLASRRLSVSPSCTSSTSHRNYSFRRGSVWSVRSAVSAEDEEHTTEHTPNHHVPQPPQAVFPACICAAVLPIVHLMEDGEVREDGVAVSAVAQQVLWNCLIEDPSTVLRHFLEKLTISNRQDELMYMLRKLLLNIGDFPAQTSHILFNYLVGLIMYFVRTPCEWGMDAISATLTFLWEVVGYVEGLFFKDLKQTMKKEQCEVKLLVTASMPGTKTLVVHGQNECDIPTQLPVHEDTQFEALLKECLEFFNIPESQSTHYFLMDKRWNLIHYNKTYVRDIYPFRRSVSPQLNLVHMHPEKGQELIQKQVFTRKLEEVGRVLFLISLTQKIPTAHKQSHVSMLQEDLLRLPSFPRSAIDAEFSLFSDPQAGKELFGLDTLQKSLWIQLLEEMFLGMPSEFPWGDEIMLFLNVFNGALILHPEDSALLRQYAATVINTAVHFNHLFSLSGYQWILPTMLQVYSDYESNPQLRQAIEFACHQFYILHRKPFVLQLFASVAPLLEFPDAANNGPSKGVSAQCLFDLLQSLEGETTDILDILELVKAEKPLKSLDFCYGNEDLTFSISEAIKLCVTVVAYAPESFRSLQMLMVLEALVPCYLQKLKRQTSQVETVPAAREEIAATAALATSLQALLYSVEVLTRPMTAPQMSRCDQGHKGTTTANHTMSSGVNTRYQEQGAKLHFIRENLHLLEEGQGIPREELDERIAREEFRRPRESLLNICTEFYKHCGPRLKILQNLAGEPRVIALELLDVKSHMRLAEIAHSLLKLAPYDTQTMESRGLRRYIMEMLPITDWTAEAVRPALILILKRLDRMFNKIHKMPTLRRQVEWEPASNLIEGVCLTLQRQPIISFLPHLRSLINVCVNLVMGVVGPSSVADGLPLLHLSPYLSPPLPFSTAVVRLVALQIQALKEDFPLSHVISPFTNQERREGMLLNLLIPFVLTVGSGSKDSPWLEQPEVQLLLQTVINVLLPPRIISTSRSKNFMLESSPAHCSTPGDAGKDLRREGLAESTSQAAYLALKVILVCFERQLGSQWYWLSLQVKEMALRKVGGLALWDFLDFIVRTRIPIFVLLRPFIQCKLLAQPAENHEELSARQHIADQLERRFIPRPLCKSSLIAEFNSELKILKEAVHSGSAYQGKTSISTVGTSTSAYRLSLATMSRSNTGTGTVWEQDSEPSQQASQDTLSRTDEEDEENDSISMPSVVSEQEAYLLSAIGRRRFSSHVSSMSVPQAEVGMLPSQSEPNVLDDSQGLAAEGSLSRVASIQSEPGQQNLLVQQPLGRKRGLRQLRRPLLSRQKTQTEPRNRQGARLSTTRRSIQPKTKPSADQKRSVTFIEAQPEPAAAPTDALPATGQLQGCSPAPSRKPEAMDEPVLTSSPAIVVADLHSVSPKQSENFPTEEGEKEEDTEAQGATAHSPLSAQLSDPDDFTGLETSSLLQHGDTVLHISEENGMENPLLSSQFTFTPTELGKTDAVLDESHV

- buried solvent accessible surface area (crossover interface): 3000 A2
Substance: human UNC79 (uncoordinated 79; protein unc-79 homolog), Q9P2D8 1-2635
